Patent US20240091368A1 (Bicycle, published 2024)
Numbered stars: 1 amine (or outer) side, 2 acyl side, 3 side chain; on linkers, the order of the positions; unused ones are H or OH. Bridge positions count the residues as written; N and C are the ends. Square brackets hold non-standard residues; d marks the D form. Ends that are not written are not given here. * marks the point of attachment. TATA = O=C(CC[*:1])N1CN(C(=O)CC[*:2])CN(C(=O)CC[*:3])C1; hArg = N=C(N)NCCCC[C@H](N)C(=O)O; Agb = N=C(N)NCC[C@H](N)C(=O)O; Pent4ynoyl = C#CCCC(=O)*

Target: human ACE2 (angiotensin-converting enzyme 2) (human, UniProt Q9BYF1 18-805)
Sequence (Q9BYF1 18-805): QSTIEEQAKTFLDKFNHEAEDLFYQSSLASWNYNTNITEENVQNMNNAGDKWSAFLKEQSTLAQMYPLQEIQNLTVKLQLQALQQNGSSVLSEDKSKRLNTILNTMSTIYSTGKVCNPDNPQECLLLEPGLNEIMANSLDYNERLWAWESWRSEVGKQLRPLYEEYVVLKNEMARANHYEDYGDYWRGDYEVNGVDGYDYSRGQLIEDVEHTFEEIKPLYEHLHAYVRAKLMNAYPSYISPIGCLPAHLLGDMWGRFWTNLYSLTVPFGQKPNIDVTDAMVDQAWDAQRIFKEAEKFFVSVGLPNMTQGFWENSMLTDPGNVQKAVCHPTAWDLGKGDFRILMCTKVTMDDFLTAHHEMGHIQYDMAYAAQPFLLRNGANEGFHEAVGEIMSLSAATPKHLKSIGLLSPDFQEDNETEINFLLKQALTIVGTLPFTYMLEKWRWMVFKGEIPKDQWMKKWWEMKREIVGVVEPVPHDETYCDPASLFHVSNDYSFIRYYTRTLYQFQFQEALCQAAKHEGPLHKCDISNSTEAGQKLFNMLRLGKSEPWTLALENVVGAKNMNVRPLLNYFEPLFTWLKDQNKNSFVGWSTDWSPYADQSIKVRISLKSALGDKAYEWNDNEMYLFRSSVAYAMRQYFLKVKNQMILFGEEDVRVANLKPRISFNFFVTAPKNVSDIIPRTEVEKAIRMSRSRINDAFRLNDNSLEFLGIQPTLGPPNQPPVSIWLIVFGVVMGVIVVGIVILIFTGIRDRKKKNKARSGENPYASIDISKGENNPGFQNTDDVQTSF
Assay: cell-based or functional assay

B1: BCY15429 (peptide)
peptide: ACNAVLCSWARANSFCA
modifications: linker 2-7-16 via TATA
Pseudoviral Neutralisation Assay, Geomean IC50: 1280 nM

B2: BCY19071 (peptide)
peptide: Ac-CNSYTCYIKHILG[Agb]C
modifications: linker 1-6-15 via TATA; also: dimer: each monomer attached at C-terminus to central hinge A (PEG23)
Pseudoviral Neutralisation Assay, Geomean IC50: 24 nM

B3: BCY17345 (peptide)
peptide: ACNAVLCSWARANSFCA
modifications: linker 2-7-16 via TATA; also: dimer: each monomer attached at C-terminus to central hinge A (PEG23)
Pseudoviral Neutralisation Assay, Geomean IC50: 6.96 nM

B4: BCY19148 (peptide)
peptide: Ac-CNAVLCSWA[hArg]ANSFCK(Pent4ynoyl)
modifications: linker 1-6-15 via TATA; also: tetramer: each monomer attached at C-terminus to central hinge C (PEG23)
Pseudoviral Neutralisation Assay, Geomean IC50: 10.1 nM

B5: BCY19147 (peptide)
peptide: Ac-CNAVLCSWA[hArg]ANSFCK(Pent4ynoyl)
modifications: linker 1-6-15 via TATA; also: trimer: each monomer attached at C-terminus to central hinge B (PEG23)
Pseudoviral Neutralisation Assay, Geomean IC50: 17.7 nM

B6: BCY17346 (peptide)
peptide: ACNAVLCSWARANSFCA
modifications: linker 2-7-16 via TATA; also: trimer: each monomer C-terminus attached to hinge B (PEG23)
Pseudoviral Neutralisation Assay, Geomean IC50: 12 nM

B7: BCY17347 (peptide)
peptide: ACNAVLCSWARANSFCA
modifications: linker 2-7-16 via TATA; also: tetramer: each monomer attached at its C-terminus to central hinge moiety C (PEG23), further groups not given here
Pseudoviral Neutralisation Assay, Geomean IC50: 3.75 nM
